Reference: US20100311648A1

What was measured:
[1] = target: human melanocortin-4 receptor (human) (UniProt P32245); assay: [I125]-NDP-α-MSH competition, hMC4-R HEK-293 membranes
[2] = target: human melanocortin-4 receptor (human) (UniProt P32245); assay: cell-based or functional assay
[3] = target: melanocortin-1 receptor (mouse (B-16 melanoma cells); in some instances human (hMC1-R)) (UniProt Q01727); assay: [I125]-NDP-α-MSH competition, MC1-R membranes
Sequence of melanocortin-1 receptor (mouse (B-16 melanoma cells); in some instances human (hMC1-R)) (Q01727 whole entry): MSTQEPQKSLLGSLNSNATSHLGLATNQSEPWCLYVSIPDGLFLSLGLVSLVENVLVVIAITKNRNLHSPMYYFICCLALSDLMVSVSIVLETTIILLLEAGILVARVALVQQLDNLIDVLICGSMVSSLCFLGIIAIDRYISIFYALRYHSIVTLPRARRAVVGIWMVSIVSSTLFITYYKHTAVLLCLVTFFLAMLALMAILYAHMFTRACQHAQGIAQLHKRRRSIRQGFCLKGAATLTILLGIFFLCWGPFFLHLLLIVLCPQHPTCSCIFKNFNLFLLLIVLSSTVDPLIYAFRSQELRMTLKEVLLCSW

Sequence of human melanocortin-4 receptor (human) (P32245 whole entry): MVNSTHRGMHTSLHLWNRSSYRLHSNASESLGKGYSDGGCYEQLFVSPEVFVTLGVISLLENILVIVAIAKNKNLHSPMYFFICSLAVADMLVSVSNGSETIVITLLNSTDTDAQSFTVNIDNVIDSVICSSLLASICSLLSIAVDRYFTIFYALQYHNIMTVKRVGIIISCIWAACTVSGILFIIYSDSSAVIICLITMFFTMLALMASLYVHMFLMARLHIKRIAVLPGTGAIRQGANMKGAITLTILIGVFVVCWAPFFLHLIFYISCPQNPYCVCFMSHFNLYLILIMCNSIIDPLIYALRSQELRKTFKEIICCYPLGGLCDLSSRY

| Substance | Ki [1] [nM] | EC50, cAMP, 0.1 ng/mL Doxycycline [2] [nM] | EC50, cAMP, 10 ng/mL Doxycycline [2] [nM] | Intrinsic Activity, cAMP, 0.1 ng/mL Doxycycline [2] [%] | Intrinsic Activity, cAMP, 10 ng/mL Doxycycline [2] [%] | Ki [3] [nM] |
| --- | --- | --- | --- | --- | --- | --- |
| Ac-Arg-cyclo(Glu-Dab(Acetyl)-D-Phe(2-Cl)-Arg-Trp-Orn)-NH2 (peptide) | 11 | 5 | 0.3 | 41 | 98 | 30 |
| Ac-Arg-cyclo(Glu-Dab-D-Phe(2,4-diCl)-Arg-Trp-Orn)-NH2 (peptide) | 0.055 |  | 0.245 | 11 | 100 | 0.5 |
| Ac-Arg-cyclo(Glu-Dab-D-Phe(2-Cl)-Arg-Trp-Orn)-NH2 (peptide) |  | 0.34 | 0.045 | 91 | 96 | 1 |
| Ac-Arg-cyclo(Glu-Dab-D-Phe(2-F)-Arg-Trp-Orn)-NH2 (peptide) | 0.7 | 0.09 | 0.035 | 91 | 89 | 0.8 |
| Ac-Arg-cyclo(Glu-Dab-D-Phe(3,4-diCl)-Arg-Trp-Orn)-NH2 (peptide) | 0.055 |  | 0.38 | 5 | 92 | 0.2 |
| Ac-Arg-cyclo(Glu-Dab-D-Phe(3-CF3)-Arg-Trp-Orn)-NH2 (peptide) | 0.95 | 8 | 0.4 | 16 | 93 | 9 |
| Ac-Arg-cyclo(Glu-Dab-D-Phe(3-CN)-Arg-Trp-Orn)-NH2 (peptide) | 33 | 37 | 2 | 29 | 100 | 43 |
| Ac-Arg-cyclo(Glu-Dab-D-Phe(3-Cl)-Arg-Trp-Orn)-NH2 (peptide) |  | 0.56 | 0.095 | 36 | 99 | 1 |
| Ac-Arg-cyclo(Glu-Dab-D-Phe(3-F)-Arg-Trp-Orn)-NH2 (peptide) | 2 | 0.45 | 0.17 | 77 | 94 | 2 |
| Ac-Arg-cyclo(Glu-Dab-D-Phe(4-CF3)-Arg-Trp-Orn)-NH2 (peptide) | 0.06 |  |  | 0.5 | 53 |  |
| Ac-Arg-cyclo(Glu-Dab-D-Phe(4-CN)-Arg-Trp-Orn)-NH2 (peptide) | 0.833 | 0.3 | 0.135 | 48 | 100 | 5 |
| Ac-Arg-cyclo(Glu-Dab-D-Phe(4-Cl)-Arg-Trp-Orn)-NH2 (peptide) | 0.08 | 0.07 | 0.16 | 28 | 100 | 0.3 |
| Ac-Arg-cyclo(Glu-Dab-D-Phe(4-F)-Arg-Trp-Orn)-NH2 (peptide) | 0.25 | 0.065 | 0.06 | 83 | 90 | 0.5 |
| Ac-Arg-cyclo(Glu-Dab-D-Phe(4-Me)-Arg-Trp-Orn)-NH2 (peptide) | 0.145 | 0.165 | 0.2 | 16 | 90 |  |
| Ac-Arg-cyclo(Glu-Dab-D-Phe(4-NH2)-Arg-Trp-Orn)-NH2 (peptide) | 48 | 29 | 0.6 | 35 | 94 |  |
| Ac-Arg-cyclo(Glu-Dab-D-Phe(4-NO2)-Arg-Trp-Orn)-NH2 (peptide) | 0.45 | 0.7 | 0.45 | 15 | 99 |  |
| Ac-Arg-cyclo(Glu-Dab-D-Phe(4-OMe)-Arg-Trp-Orn)-NH2 (peptide) | 0.25 | 0.15 | 0.16 | 28 | 97 | 0.15 |
| Ac-Arg-cyclo(Glu-Dab-D-Phe(4-Ph)-Arg-Trp-Orn)-NH2 (peptide) | 0.5 |  | 0.8 | 14 | 100 |  |
| Ac-Arg-cyclo(Glu-Dab-D-Phe(4-tBu)-Arg-Trp-Orn)-NH2 (peptide) | 4 |  |  | 2 | 9 |  |
| Ac-Arg-cyclo(Glu-Dab-D-Tyr-Arg-Trp-Orn)-NH2 (peptide) | 75 | 48 | 0.55 | 71 | 87 |  |
| Ac-Arg-cyclo(Glu-Dap-D-Phe(2-Cl)-Arg-Trp-Orn)-NH2 (peptide) | 9 | 16 | 0.47 | 23 | 84 |  |
| Ac-Arg-cyclo(Glu-Dap-D-Phe(3-Cl)-Arg-Trp-Orn)-NH2 (peptide) | 4 |  | 0.95 | 6 | 89 |  |
| Ac-Arg-cyclo(Glu-Hyp-D-Phe(2-Cl)-Arg-Trp-Orn)-NH2 (peptide) | 1 | 1 | 0.153 | 41 | 98 | 143 |
| Ac-Arg-cyclo(Glu-Hyp-D-Phe(2-F)-Arg-Trp-Orn)-NH2 (peptide) |  | 1 | 0.08 | 57 | 90 | 53 |
| Ac-Arg-cyclo(Glu-Hyp-D-Phe(3-Cl)-Arg-Trp-Orn)-NH2 (peptide) | 2 |  | 0.55 | 6 | 90 | 430 |
| Ac-Arg-cyclo(Glu-Orn-D-Phe(3-Cl)-Arg-Trp-Orn)-NH2 (peptide) | 1 | 0.95 | 0.14 | 36 | 93 |  |
| Ac-Arg-cyclo(Glu-Phe(3-C(═O)-NH2)-D-Phe(2-Cl)-D-Phe-Arg-Trp-Orn)-NH2 (peptide) |  |  | 4 | 6 | 93 | 545 |
| Ac-Arg-cyclo(Glu-Ser(Bzl)-D-Phe(2-Cl)-Arg-Trp-Orn)-NH2 (peptide) | 0.3 | 0.31 | 0.373 | 36 | 100 |  |
| Ac-D-Arg-cyclo(Orn-His-D-Phe(2-F)-Arg-Trp-Glu)-NH2 (peptide) | 0.95 | 0.13 | 0.13 | 86 | 90 |  |
